Experimental data reported in PMC10681739, “High-throughput data and modeling reveal insights into the mechanisms of cooperative DNA-binding by transcription factor proteins”.

Target: RUNX1 (Homo sapiens, UniProt Q01196)
Experiment: gcPBM; 2 nM RUNX1
Settings: tags: N-terminal GST (pDEST15), kept (PMC6008103); label: surface-attached array probe

Sequence of RUNX1 (Q01196 whole entry): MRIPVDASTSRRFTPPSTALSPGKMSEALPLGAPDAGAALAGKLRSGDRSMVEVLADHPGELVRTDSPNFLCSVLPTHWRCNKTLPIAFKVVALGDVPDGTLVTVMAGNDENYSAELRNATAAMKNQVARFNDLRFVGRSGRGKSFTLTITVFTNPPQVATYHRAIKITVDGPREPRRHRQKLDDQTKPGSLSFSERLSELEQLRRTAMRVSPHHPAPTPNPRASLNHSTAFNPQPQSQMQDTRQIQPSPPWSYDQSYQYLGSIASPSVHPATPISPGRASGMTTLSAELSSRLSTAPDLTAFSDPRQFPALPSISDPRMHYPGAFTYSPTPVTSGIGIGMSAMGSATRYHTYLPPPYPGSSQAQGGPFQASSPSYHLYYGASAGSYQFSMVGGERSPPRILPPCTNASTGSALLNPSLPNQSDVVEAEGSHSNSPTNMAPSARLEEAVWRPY

Binder	binding signal
Table S3 B row 2175 (dsDNA) DNA 1: AAATCAAAACCACAATCAGATACCACTTGCTGCCCA DNA 2: TGGGCAGCAAGTGGTATCTGATTGTGGTTTTGATTT	6180 PBM fluorescence, median of replicate spots
Table S3 B row 2650 (dsDNA) DNA 1: CTCCTGGGCTTGTGGTTAGAGCATCATGCAGCAAGG DNA 2: CCTTGCTGCATGATGCTCTAACCACAAGCCCAGGAG	6170 PBM fluorescence, median of replicate spots
Table S3 B row 1899 (dsDNA) DNA 1: CCGCCGCGACCGCAGGCCTCCGTTCAGCCGGGGTAA DNA 2: TTACCCCGGCTGAACGGAGGCCTGCGGTCGCGGCGG	6120 PBM fluorescence, median of replicate spots
Table S3 B row 1205 (dsDNA) DNA 1: TCAGCCTGTGGTTTCTGAAGACCTCCTCGAAGTCAT DNA 2: ATGACTTCGAGGAGGTCTTCAGAAACCACAGGCTGA	6080 PBM fluorescence, median of replicate spots
Table S3 B row 875 (dsDNA) DNA 1: CTCCTGGGCTTGTGGTTAGAACATGCTGCAGCAAAG DNA 2: CTTTGCTGCAGCATGTTCTAACCACAAGCCCAGGAG	6070 PBM fluorescence, median of replicate spots
Table S3 B row 1412 (dsDNA) DNA 1: GTCGCCCCCACCGCAAGTATTTCAGCTTCCCTCCGC DNA 2: GCGGAGGGAAGCTGAAATACTTGCGGTGGGGGCGAC	6050 PBM fluorescence, median of replicate spots
Table S3 B row 3061 (dsDNA) DNA 1: CCTCTGCCCAACCACAATTTTCCCTTCGTCAGCCTT DNA 2: AAGGCTGACGAAGGGAAAATTGTGGTTGGGCAGAGG	6030 PBM fluorescence, median of replicate spots
Table S3 B row 2983 (dsDNA) DNA 1: ACTCTGTGGTTTCATTGCCTGCCCGTAAATGCAGCT DNA 2: AGCTGCATTTACGGGCAGGCAATGAAACCACAGAGT	5930 PBM fluorescence, median of replicate spots
Table S3 B row 601 (dsDNA) DNA 1: GGTTCCTTGCGGTTCGCGGCGTGCCGGGCGTGACAA DNA 2: TTGTCACGCCCGGCACGCCGCGAACCGCAAGGAACC	5880 PBM fluorescence, median of replicate spots
Table S3 B row 3681 (dsDNA) DNA 1: CGGCACCCTCCTTCGTCCCTGCCAACCGCCTCCACC DNA 2: GGTGGAGGCGGTTGGCAGGGACGAAGGAGGGTGCCG	5850 PBM fluorescence, median of replicate spots
Table S3 B row 3940 (dsDNA) DNA 1: TCTCTAGTTCCCATTATTTCTGTGGTTAATTTCACC DNA 2: GGTGAAATTAACCACAGAAATAATGGGAACTAGAGA	5800 PBM fluorescence, median of replicate spots
Table S3 B row 207 (dsDNA) DNA 1: GGCTCAAAACCACAGAGAAGCCTCCTATAGTGGGAT DNA 2: ATCCCACTATAGGAGGCTTCTCTGTGGTTTTGAGCC	5720 PBM fluorescence, median of replicate spots
Table S3 B row 2890 (dsDNA) DNA 1: CGGTCTGACCACAAACTCTGCCTTACGGCAAGGCTG DNA 2: CAGCCTTGCCGTAAGGCAGAGTTTGTGGTCAGACCG	5700 PBM fluorescence, median of replicate spots
Table S3 B row 1595 (dsDNA) DNA 1: CAGTAGGCTGCGGTTGCGCGCGCCGGGTGTGGGCCC DNA 2: GGGCCCACACCCGGCGCGCGCAACCGCAGCCTACTG	5670 PBM fluorescence, median of replicate spots
Table S3 B row 533 (dsDNA) DNA 1: AGTTGTGAAACCACAAAACACAGAAAGGAGGTGGTC DNA 2: GACCACCTCCTTTCTGTGTTTTGTGGTTTCACAACT	5640 PBM fluorescence, median of replicate spots
Table S3 B row 3915 (dsDNA) DNA 1: CACCTGACCACAAGGCACACGAAGATCCTTATCACA DNA 2: TGTGATAAGGATCTTCGTGTGCCTTGTGGTCAGGTG	5610 PBM fluorescence, median of replicate spots
Table S3 B row 2874 (dsDNA) DNA 1: TCAGTGCGGTCAGGGAGTCTGTACTGCCTGGATGGC DNA 2: GCCATCCAGGCAGTACAGACTCCCTGACCGCACTGA	5600 PBM fluorescence, median of replicate spots
Table S3 B row 1458 (dsDNA) DNA 1: TTCTCCACTGCCTTCTTTACCTCACCTACCACATAA DNA 2: TTATGTGGTAGGTGAGGTAAAGAAGGCAGTGGAGAA	5560 PBM fluorescence, median of replicate spots
Table S3 B row 2109 (dsDNA) DNA 1: ATGTCAGTAACCACAAACGAGCCACAGCATAAGAAC DNA 2: GTTCTTATGCTGTGGCTCGTTTGTGGTTACTGACAT	5490 PBM fluorescence, median of replicate spots
Table S3 B row 1304 (dsDNA) DNA 1: TCTGCTGCTTCTGTGGTTTACGGAATTTGTAACCCT DNA 2: AGGGTTACAAATTCCGTAAACCACAGAAGCAGCAGA	5370 PBM fluorescence, median of replicate spots
Table S3 B row 2419 (dsDNA) DNA 1: GGCTACAGCAACCGCAAGGCATCACGGAGGTCGTAG DNA 2: CTACGACCTCCGTGATGCCTTGCGGTTGCTGTAGCC	5220 PBM fluorescence, median of replicate spots
Table S3 B row 2350 (dsDNA) DNA 1: CCTGTCTTGTGGTTAAGTCAAGGCAGGCAATGCTTT DNA 2: AAAGCATTGCCTGCCTTGACTTAACCACAAGACAGG	5190 PBM fluorescence, median of replicate spots
Table S3 B row 2281 (dsDNA) DNA 1: ACCCCAAACCCACAAACCCACCTGAAGGAACCAACT DNA 2: AGTTGGTTCCTTCAGGTGGGTTTGTGGGTTTGGGGT	5110 PBM fluorescence, median of replicate spots

Binder	binding signal
Table S3 B row 2453 (dsDNA) DNA 1: GCCCTGTGGTTTTCTGAGGCCCCCGAGGAGGAGGTG DNA 2: CACCTCCTCCTCGGGGGCCTCAGAAAACCACAGGGC	5060 PBM fluorescence, median of replicate spots
Table S3 B row 646 (dsDNA) DNA 1: GCTCAAACAATAACCACAACACTTCATGCCTCTCTC DNA 2: GAGAGAGGCATGAAGTGTTGTGGTTATTGTTTGAGC	5040 PBM fluorescence, median of replicate spots
Table S3 B row 2473 (dsDNA) DNA 1: CCCACCCAGCAAGCCGTCCTAACCACAACAGCCCTC DNA 2: GAGGGCTGTTGTGGTTAGGACGGCTTGCTGGGTGGG	5020 PBM fluorescence, median of replicate spots
Table S3 B row 934 (dsDNA) DNA 1: TCAGAACCGCAGACGTGGCCCTGCGTGGCTTCAGGC DNA 2: GCCTGAAGCCACGCAGGGCCACGTCTGCGGTTCTGA	4860 PBM fluorescence, median of replicate spots
Table S3 B row 2125 (dsDNA) DNA 1: CAGGCTGCGGTTGAAATGCATCAGCTCTTTCGTGCC DNA 2: GGCACGAAAGAGCTGATGCATTTCAACCGCAGCCTG	4740 PBM fluorescence, median of replicate spots
Table S3 B row 2319 (dsDNA) DNA 1: CCCCGGCAGAAACCGCACCCCACTCCCCATAGCCAC DNA 2: GTGGCTATGGGGAGTGGGGTGCGGTTTCTGCCGGGG	4670 PBM fluorescence, median of replicate spots
Table S3 B row 3962 (dsDNA) DNA 1: GCCCCTCTGCGGTCGCAGCCCCGCCGGGAGTGTGGC DNA 2: GCCACACTCCCGGCGGGGCTGCGACCGCAGAGGGGC	4660 PBM fluorescence, median of replicate spots
Table S3 B row 2863 (dsDNA) DNA 1: CCGCCCTGTGGTTTTGGAGCCCTTGCTCCCGGCGCA DNA 2: TGCGCCGGGAGCAAGGGCTCCAAAACCACAGGGCGG	4640 PBM fluorescence, median of replicate spots
Table S3 B row 2861 (dsDNA) DNA 1: ACGATCCAACCGCATTCACCCCGTAAGCCGCTTCCA DNA 2: TGGAAGCGGCTTACGGGGTGAATGCGGTTGGATCGT	4500 PBM fluorescence, median of replicate spots
Table S3 B row 1215 (dsDNA) DNA 1: ACAGAGAAACCACAGCCCTGAGCCTCTTCATGACAT DNA 2: ATGTCATGAAGAGGCTCAGGGCTGTGGTTTCTCTGT	4430 PBM fluorescence, median of replicate spots
Table S3 B row 905 (dsDNA) DNA 1: CCTCTGCGGTCTCTGCAGCCGTTTGCATTTGCTGAA DNA 2: TTCAGCAAATGCAAACGGCTGCAGAGACCGCAGAGG	4320 PBM fluorescence, median of replicate spots
Table S3 B row 2682 (dsDNA) DNA 1: TGGAAACCACAAGTTATTCCCTGCAAGCCGTAAGCA DNA 2: TGCTTACGGCTTGCAGGGAATAACTTGTGGTTTCCA	4300 PBM fluorescence, median of replicate spots
Table S3 B row 4026 (dsDNA) DNA 1: CCTCCTGTGGTTAGTTCCTGCCCGATCAGGCAGGAG DNA 2: CTCCTGCCTGATCGGGCAGGAACTAACCACAGGAGG	4260 PBM fluorescence, median of replicate spots
Table S3 B row 1232 (dsDNA) DNA 1: CTCCTCTGTGGTCAGCCATCAATTCATCCCAGCCCG DNA 2: CGGGCTGGGATGAATTGATGGCTGACCACAGAGGAG	4200 PBM fluorescence, median of replicate spots
Table S3 B row 75 (dsDNA) DNA 1: GCGTCCTTTGCGGTCTTTTGTCCACGTTCGGGTCAA DNA 2: TTGACCCGAACGTGGACAAAAGACCGCAAAGGACGC	4170 PBM fluorescence, median of replicate spots
Table S3 B row 1201 (dsDNA) DNA 1: GTGGGCTGTGGTTAGGAGACATGAAGGAGAATGCCA DNA 2: TGGCATTCTCCTTCATGTCTCCTAACCACAGCCCAC	4150 PBM fluorescence, median of replicate spots
Table S3 B row 3703 (dsDNA) DNA 1: GGAACACTGCGGTCGGGGCGAGGGAGCTGCCGGGGA DNA 2: TCCCCGGCAGCTCCCTCGCCCCGACCGCAGTGTTCC	4100 PBM fluorescence, median of replicate spots
Table S3 B row 1934 (dsDNA) DNA 1: TCCTCCCCCAACCGCACCCTCAGCTTCATGTTTCAG DNA 2: CTGAAACATGAAGCTGAGGGTGCGGTTGGGGGAGGA	3950 PBM fluorescence, median of replicate spots
Table S3 B row 878 (dsDNA) DNA 1: CCCTTTGTGGTCACAAAAACATGTCCTAGTTGAGAT DNA 2: ATCTCAACTAGGACATGTTTTTGTGACCACAAAGGG	3830 PBM fluorescence, median of replicate spots
Table S3 B row 708 (dsDNA) DNA 1: CTCCTGCGGTTGCCAGGCAACCGGCCCCGGGAGTTG DNA 2: CAACTCCCGGGGCCGGTTGCCTGGCAACCGCAGGAG	3720 PBM fluorescence, median of replicate spots
Table S3 B row 1841 (dsDNA) DNA 1: CTGCCCATCGCGGTTAACTTTTGCGCCTCCTTAAAG DNA 2: CTTTAAGGAGGCGCAAAAGTTAACCGCGATGGGCAG	3570 PBM fluorescence, median of replicate spots
Table S3 B row 1484 (dsDNA) DNA 1: GTGAAGACCGCAAGTTGGGGCAGATGGCTCCCGACT DNA 2: AGTCGGGAGCCATCTGCCCCAACTTGCGGTCTTCAC	3440 PBM fluorescence, median of replicate spots
